How the values were obtained:
[1] = target: C3b (purified; species not stated in Examples 12, 13, 19, 20) (UniProt P01024); test: ELISA; conditions: Fc fusion
[2] = target: murine C3 or a fragment of C3, deposited on particles opsonized with mouse serum (mouse) (UniProt P01027); test: cell-based or functional assay
[3] = target: C3b dimers (C3b2) (human) (UniProt P01024); test: SPR, CRIg-Fc captured on a CM5 chip via an antibody to the Fc tag, dimeric C3b injected, response at equilibrium
[4] = target: murine C3 or a fragment of C3, deposited on particles opsonized with mouse serum (mouse) (UniProt P01027); test: flow cytometry; conditions: Fc fusion
Target sequence in this assay (P01027 25-666, chain 1 of 2): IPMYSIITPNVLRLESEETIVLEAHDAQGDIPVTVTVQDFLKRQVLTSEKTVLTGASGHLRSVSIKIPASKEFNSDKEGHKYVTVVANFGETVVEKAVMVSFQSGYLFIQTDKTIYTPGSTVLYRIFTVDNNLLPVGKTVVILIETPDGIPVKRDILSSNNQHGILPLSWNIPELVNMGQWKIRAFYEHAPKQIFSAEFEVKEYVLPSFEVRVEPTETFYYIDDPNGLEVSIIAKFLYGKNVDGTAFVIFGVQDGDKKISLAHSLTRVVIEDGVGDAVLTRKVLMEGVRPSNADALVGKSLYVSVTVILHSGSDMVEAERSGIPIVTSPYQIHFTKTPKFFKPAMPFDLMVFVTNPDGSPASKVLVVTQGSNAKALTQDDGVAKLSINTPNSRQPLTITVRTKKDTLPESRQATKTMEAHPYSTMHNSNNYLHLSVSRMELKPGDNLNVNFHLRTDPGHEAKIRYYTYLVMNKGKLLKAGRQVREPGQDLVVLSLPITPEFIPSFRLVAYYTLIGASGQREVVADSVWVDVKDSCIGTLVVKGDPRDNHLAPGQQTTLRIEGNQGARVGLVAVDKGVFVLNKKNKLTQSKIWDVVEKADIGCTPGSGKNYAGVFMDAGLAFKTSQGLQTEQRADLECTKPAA
Target sequence in this assay (P01027 749-1663, chain 2 of 2): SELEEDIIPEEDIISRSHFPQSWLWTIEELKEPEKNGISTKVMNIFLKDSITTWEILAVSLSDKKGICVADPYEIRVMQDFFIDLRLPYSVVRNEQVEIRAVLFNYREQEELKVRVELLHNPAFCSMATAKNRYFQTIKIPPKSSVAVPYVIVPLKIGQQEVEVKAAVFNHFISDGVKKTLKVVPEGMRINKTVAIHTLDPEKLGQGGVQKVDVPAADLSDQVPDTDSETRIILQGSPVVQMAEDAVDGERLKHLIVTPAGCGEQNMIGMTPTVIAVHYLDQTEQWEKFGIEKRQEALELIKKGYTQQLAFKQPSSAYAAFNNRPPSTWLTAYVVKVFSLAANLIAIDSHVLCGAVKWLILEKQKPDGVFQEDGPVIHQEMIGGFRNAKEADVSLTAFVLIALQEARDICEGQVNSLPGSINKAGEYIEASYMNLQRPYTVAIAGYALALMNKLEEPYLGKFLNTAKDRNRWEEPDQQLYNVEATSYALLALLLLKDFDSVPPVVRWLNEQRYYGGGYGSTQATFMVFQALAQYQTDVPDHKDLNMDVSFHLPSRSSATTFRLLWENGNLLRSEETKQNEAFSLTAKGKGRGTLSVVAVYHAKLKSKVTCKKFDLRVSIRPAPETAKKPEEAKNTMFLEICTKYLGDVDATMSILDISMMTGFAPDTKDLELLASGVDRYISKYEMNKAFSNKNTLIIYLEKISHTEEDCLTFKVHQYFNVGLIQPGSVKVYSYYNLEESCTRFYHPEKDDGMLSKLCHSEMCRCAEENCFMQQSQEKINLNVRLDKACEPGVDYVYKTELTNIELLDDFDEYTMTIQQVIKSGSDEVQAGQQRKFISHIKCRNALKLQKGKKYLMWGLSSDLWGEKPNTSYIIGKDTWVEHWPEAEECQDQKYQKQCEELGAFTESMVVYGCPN

Kd [1]	Kd [3]	Substance	also measured
75 nM		human CRIg-Fc fusion protein (long or short form not specified) (from UniProt Q9Y279 20-283)	
		murine CRIg expressed on the cell surface (receptor)	reduction in E-IgM rosetting of CRIg ko KCs compared to CRIg wt KCs [2]: 60%
		complement receptor 3 (CR3) on mouse Kupffer cells (from UniProt P05555 17-1153; P11835 24-771)	further reduction in rosette formation with the addition of CR3 blocking antibody [2]: < 20%
	44 nM	huCRIg(S)-Fc fusion protein (from UniProt Q9Y279 20-283)	
50 nM		murine CRIg-Fc fusion protein	Kd [4]: 17 nM
	131 nM	huCRIg(L)-Fc fusion protein (from UniProt Q9Y279 20-283)	
